Assay results reported in patent publication US20250361297A1 (ADAPTAM THERAPEUTICS S L, published 2025).

Tests used:
CD3 on Jurkat cells = target: T1, CD3 on Jurkat cells (UniProt P07766 23-207); experiment: flow cytometry, Jurkat cells expressing CD3, gMFI
T1 construct: whole, on cells; Whole CD3 complex on cells; also called CD3-expressing Jurkat cells; Jurkat cells expressing CD3

recombinant CD3 = recombinant CD3 (UniProt P07766 23-126; P09693 23-116); experiment: antibody as ligand, 'Human CD3 epsilon&CD3 gamma' as analyte; legend paragraph 116 says BLI, methods paragraph 422 say Biacore SPR, table in RU
recombinant CD3, sequence (P07766 23-126, form in doubt, chain 1 of 2): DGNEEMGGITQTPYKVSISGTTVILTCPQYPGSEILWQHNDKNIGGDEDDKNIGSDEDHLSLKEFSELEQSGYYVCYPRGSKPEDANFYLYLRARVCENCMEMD
recombinant CD3, sequence (P09693 23-116, form in doubt, chain 2 of 2): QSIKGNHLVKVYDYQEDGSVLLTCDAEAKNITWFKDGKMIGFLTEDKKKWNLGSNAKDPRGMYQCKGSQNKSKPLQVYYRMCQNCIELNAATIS

[1] = target: T2, human Siglec-15, full length, expressed on cells (human, UniProt Q6ZMC9 20-328); experiment: flow cytometry, THP-1 cells overexpressing human Siglec-15, ADC titrated, anti-human IgG-PE, gMFI
T2 construct: also called hS15; MOLM-13 Siglec-15 expressing cells
T2 sequence: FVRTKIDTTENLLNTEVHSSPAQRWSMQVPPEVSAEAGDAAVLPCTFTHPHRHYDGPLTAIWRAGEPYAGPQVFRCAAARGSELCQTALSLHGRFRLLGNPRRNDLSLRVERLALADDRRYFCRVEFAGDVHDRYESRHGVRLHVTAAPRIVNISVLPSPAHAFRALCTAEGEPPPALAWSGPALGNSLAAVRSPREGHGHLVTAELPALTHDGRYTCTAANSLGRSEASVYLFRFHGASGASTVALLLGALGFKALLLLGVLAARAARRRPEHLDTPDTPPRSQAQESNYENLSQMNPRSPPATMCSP

[2] = target: T3, mouse Siglec-15, full length, expressed on HEK293T cells (mouse); experiment: IgG1 titration, flow cytometry on HEK293T cells expressing mouse Siglec-15
T3 construct: also called mS15; HEK293T cells expressing mouse Siglec-15
T3 chain: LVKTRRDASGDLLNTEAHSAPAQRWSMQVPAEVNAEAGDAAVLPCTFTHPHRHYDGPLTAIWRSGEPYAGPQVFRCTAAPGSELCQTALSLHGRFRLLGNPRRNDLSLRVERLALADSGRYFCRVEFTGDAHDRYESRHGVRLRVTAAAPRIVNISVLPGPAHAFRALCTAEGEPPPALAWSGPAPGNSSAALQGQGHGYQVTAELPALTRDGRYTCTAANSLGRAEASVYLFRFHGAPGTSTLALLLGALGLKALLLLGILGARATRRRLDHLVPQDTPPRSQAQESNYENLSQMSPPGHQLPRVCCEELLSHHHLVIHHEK

[3] = target: T2, human Siglec-15, full length, expressed …; experiment: IgG1 titration, flow cytometry on MOLM-13 human Siglec-15 cells
[4] = target: T4, truncated human Siglec-15 comprising only domain 2 (D2), expressed on HEK293T cells (human, UniProt Q6ZMC9 168-251, limits assumed); experiment: flow cytometry on HEK293T cells expressing domain 2 only (FIG. 16)
T4 construct: also called domain 2-only human Siglec-15; Siglec-15 Domain 2 (D2) HEK293T cells
T4 sequence: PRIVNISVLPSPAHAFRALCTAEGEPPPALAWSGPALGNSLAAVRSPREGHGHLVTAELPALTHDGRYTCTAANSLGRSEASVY

[5] = target: T5, recombinant Siglec-15 (bispecific antibody affinity assay) (Homo sapiens (Human), UniProt Q6ZMC9 20-263, limits assumed); experiment: antibody as ligand, human Siglec15 as analyte; legend paragraph 114 says BLI, methods paragraph 422 say Biacore SPR, table in RU
T5 sequence: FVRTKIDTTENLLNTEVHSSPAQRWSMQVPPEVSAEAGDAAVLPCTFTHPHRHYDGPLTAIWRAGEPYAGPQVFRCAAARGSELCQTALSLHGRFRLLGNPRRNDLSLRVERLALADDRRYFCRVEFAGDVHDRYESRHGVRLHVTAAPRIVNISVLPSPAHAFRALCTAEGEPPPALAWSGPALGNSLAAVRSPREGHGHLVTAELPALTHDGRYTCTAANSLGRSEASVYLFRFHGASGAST

[6] = target: T2, human Siglec-15, full length, expressed …; experiment: flow cytometry, HEK293T cells expressing human Siglec-15, anti-human IgG-PE, MFI
[7] = target: T6, recombinant human Siglec-15-his protein (Bonopusbio) (human, UniProt Q6ZMC9 20-263); experiment: SPR (Biacore T200), antibody on CM5 chip, Siglec-15-his as analyte
T6 construct: Bought (CW37-50 ug in the ELISA; the SPR paragraph prints CW70-50 ug); whole entry named; also called recombinant human Siglec-15 protein
T6 sequence: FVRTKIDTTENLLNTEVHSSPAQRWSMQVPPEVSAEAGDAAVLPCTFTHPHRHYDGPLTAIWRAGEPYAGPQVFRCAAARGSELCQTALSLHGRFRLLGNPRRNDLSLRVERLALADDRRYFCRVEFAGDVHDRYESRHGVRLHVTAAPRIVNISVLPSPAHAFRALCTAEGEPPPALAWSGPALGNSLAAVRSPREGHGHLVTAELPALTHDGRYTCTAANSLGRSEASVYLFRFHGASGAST

[8] = target: T7, recombinant cynomolgus Siglec-15-his protein (Bonopusbio, CW70-50 ug) (cynomolgus monkey, UniProt Q6ZMC9 20-259 (human entry)); experiment: ELISA, plate coated with recombinant cynomolgus Siglec-15-his, antibody titrated up to about 200 nM, OD 450 nm
T7 construct: whole entry named; also called cynomolgous Siglec-15
T7 chain: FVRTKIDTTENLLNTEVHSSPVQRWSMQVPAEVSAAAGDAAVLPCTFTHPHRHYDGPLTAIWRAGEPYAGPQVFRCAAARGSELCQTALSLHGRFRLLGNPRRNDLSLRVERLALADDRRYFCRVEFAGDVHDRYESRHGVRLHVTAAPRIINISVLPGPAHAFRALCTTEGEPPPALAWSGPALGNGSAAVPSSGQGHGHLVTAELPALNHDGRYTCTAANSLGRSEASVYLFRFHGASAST

[9] = target: T4, truncated human Siglec-15 comprising …; experiment: flow cytometry on HEK 293T cells expressing only D2; compared to antibody clone A2A5C7E8
[10] = target: T6, recombinant human Siglec-15-his protein …; experiment: ELISA, plate coated with 100 ng per well recombinant human Siglec-15 (supplier not named in Example 3), HRP anti-mouse IgG, OD450
[11] = target: T2, human Siglec-15, full length, expressed …; experiment: flow cytometry, THP-1 cells overexpressing human Siglec-15, ADC titrated, anti-human IgG-PE, gMFI; remark: listed apart in the source
[12] = target: T2, human Siglec-15, full length, expressed …; experiment: as above; remark: listed apart in the source

T1 sequence (P07766 23-207): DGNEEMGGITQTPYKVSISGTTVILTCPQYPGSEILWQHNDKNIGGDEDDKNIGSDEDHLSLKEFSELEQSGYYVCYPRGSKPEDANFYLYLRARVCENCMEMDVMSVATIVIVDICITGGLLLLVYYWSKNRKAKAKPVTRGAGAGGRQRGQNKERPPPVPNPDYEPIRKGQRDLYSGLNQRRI

B1: parental anti-CD3 antibody (humanized SP34 CD3 antibody) (antibody, V domains shown)
VH: EVQLVESGGGLVKPGGSLRLSCAASGFTFNTYAMNWVRQAPGKGLEWVARIRSKYNNYATYYADSVKDRFTISRDDSKNTLYLQMNSLKTEDTAVYYCVRHGNFGNSYVSWFAYWGQGTLVTVSS
VL: QTVVTQEPSFSVSPGGTVTLTCRSSTGAVTTSNYANWVQQTPGQAPRGLIGGTNKRAPGVPARFSGSILGNKAALTITGAQADDEAEYFCALWYSNLWVFGGGTKLTVL
notes: also called anti-human CD3 humanized antibody; anti-CD3 mAb
With B1 the “EC50 (read off the curve)” value (CD3 on Jurkat cells) was roughly 0.2 nM, the Kd (recombinant CD3) was 67.1 nM and the koff (recombinant CD3) was 0.00713 s⁻¹. It also gave a kon (recombinant CD3) of 106000 M⁻¹ s⁻¹.

B2: ZLA-1243-E01-MMAE (other)
VH: QVQLVQSGGGLVQPGRSLRLSCAASGFTFDDYAMHWVRQAPGKGLEWVSGISWNSGSIGYADSVKGRFTISRDNAKNSLYLQMNSLRAEDTALYYCAKGLWPSYDLDAFDIWGQGTMVTVSS
VL: QSALTQPASVSGSPGQSITLSCTGTSSDVGAYNFVSWYQQHPGTAPKLMIYEVSNRPSGVSDRFSGSKSGNTASLTISGLQAEDEADYYCSSYTSTIPPFVFGTGTKVTVL
modifications: vc-MMAE payload linker conjugated to the antibody; residue not stated
B2 was tested, and the “EC50 (read off the curve)” value [1] was roughly 3 nM.

B3: ZLA-1214-H05 (antibody, V domains shown)
VH: QVQLVQSGAEVKKPGASVKVSCKASGYTFTSYGISWVRQAPGQGLEWMGWISAYNGNTNYAQKLQGRVTMTTDTSTSTAYMELRSLRSDDTAVYYCARMSGYYGMDVWGQGTLVTVSS
VL: DIQLTQSPSSLSASVGDRVTITCQASQGISNYLNWYQQKPGKAPKLLIYDASNLETGVPSRFSGSGSGTDFTFTISSLQPEDIATYYCQQYDNLPLTFGGGTKLEIK
notes: Fully human, from phage display
With B3 the EC50 [2] was 0.561 µg/mL, the EC50 [3] was 0.593 µg/mL and the binding result [4] was “no binding”.

B4: BsAb-1 (bispecific antibody, human IgG1, kappa, lambda, L234A L235A)
light 1: not shown
heavy 1: QVQLQQSGPELVKPGASVKISCKASGYAFSSSWMNWVKQRPGKGLEWIGRIYPGHGETNYNGKFKDKATVTADKSSSTTYMQLSSLTSEDSAVYFCARVDNSDPYYFDYWGQGTTLTVSSASTKGPSVFPLAPSSKSTSGGTAALGCLVKDYFPEPVTVSWNSGALTSGVHTFPAVLQSSGLYSLSSVVTVPSSSLGTQTYICNVNHKPSNTKVDKKVEPKSCDKTHTCPPCPAPEAAGGPSVFLFPPKPKDTLMISRTPEVTCVVVDVSHEDPEVKFNWYVDGVEVHNAKTKPREEQYNSTYRVVSVLTVLHQDWLNGKEYKCKVSNKALPAPIEKTISKAKGQPREPQVCTLPPSRDELTKNQVSLSCAVKGFYPSDIAVEWESNGQPENNYKTTPPVLDSDGSFFLVSKLTVDKSRWQQGNVFSCSVMHEALHNHYTQKSLSLSPGK
heavy 2: not shown
light 2: QTVVTQEPSFSVSPGGTVTLTCRSSTGAVTTSNYANWVQQTPGQAPRGLIGGTNKRAPGVPARFSGSILGNKAALTITGAQADDEAEYFCALWYSNLWVFGGGTKLTVLASTKGPSVFPLAPSSKSTSGGTAALGCLVKDYFPEPVTVSWNSGALTSGVHTFPAVLQSSGLYSLSSVVTVPSSSLGTQTYICNVNHKPSNTKVDKKVEPKSC
notes: S15B1 arm and humanized SP34 anti-CD3 arm; also called anti-Siglec-15/CD3 bispecific antibody, Format-1: KIH & CrossmAb
B4 gave a Kd [5] of 0.0865 nM, a koff [5] of 0.00025 s⁻¹ and a kon [5] of 2.89e+06 M⁻¹ s⁻¹. The “EC50 (read off the curve)” value (CD3 on Jurkat cells) was roughly 4 nM, the Kd (recombinant CD3) was 115 nM and the koff (recombinant CD3) was 0.011 s⁻¹. For the same binder, the kon (recombinant CD3) was 95800 M⁻¹ s⁻¹.

B5: S15B1 (antibody, V domains shown)
VH: QVQLQQSGPELVKPGASVKISCKASGYAFSSSWMNWVKQRPGKGLEWIGRIYPGHGETNYNGKFKDKATVTADKSSSTTYMQLSSLTSEDSAVYFCARVDNSDPYYFDYWGQGTTLTVSS
VL: DIVLTQSPASLAVSLGQRATISCRASKSVSTSGYSYMHWYQQKPGQPPKLLIYLASNLESGVPARFSGSGSGTDFTLNIHPVEEEDAATYYCQHGRELPFTFGSGTKLEIK
notes: Mouse hybridoma monoclonal antibody ('parental mouse S15B1'); also called clone S15B1; S15B1-VH + VL (Parental)
In the case of B5, the “EC50 (read off the curve)” value [6] is reported as roughly 0.5 nM, the Kd [5] is reported as 0.0497 nM and the koff [5] is reported as 0.000154 s⁻¹. It also gave a kon [5] of 3.11e+06 M⁻¹ s⁻¹, a Kd [7] of 0.0522 nM and a koff [7] of 0.000233 s⁻¹. For the same binder, the kon [7] was 4.46e+06 M⁻¹ s⁻¹, the “EC50 (read off the curve)” value [8] was roughly 0.6 nM and the “fold increase in antibody-positive cells” value [9] was roughly 4 fold. The “EC50 (read off the curve)” value [10] was roughly 200 ng/mL.

B6: S15B1-Exatecan ADC (other)
VH: QVQLQQSGPELVKPGASVKISCKASGYAFSSSWMNWVKQRPGKGLEWIGRIYPGHGETNYNGKFKDKATVTADKSSSTTYMQLSSLTSEDSAVYFCARVDNSDPYYFDYWGQGTTLTVSS
VL: DIVLTQSPASLAVSLGQRATISCRASKSVSTSGYSYMHWYQQKPGQPPKLLIYLASNLESGVPARFSGSGSGTDFTLNIHPVEEEDAATYYCQHGRELPFTFGSGTKLEIK
modifications: MC-GGFG-Exatecan payload linker conjugated to the antibody; residue not stated
notes: Antibody-drug conjugate; also called S15B1-based antibody-drug conjugate with Exatecan
For B6, the “EC50 (read off the curve)” value [11] was roughly 6 nM.

B7: S15B1-MMAE ADC (other)
VH: QVQLQQSGPELVKPGASVKISCKASGYAFSSSWMNWVKQRPGKGLEWIGRIYPGHGETNYNGKFKDKATVTADKSSSTTYMQLSSLTSEDSAVYFCARVDNSDPYYFDYWGQGTTLTVSS
VL: DIVLTQSPASLAVSLGQRATISCRASKSVSTSGYSYMHWYQQKPGQPPKLLIYLASNLESGVPARFSGSGSGTDFTLNIHPVEEEDAATYYCQHGRELPFTFGSGTKLEIK
modifications: vc-MMAE payload linker conjugated to the antibody; residue not stated
notes: Antibody-drug conjugate; also called S15B1-based antibody-drug conjugate with MMAE
For B7, the “EC50 (read off the curve)” value [12] was roughly 8 nM.
